Experimental data as given in the nanobody polyreactivity screen of Harvey et al. (2022).

Test: yeast display, Sf9 membrane polyspecificity reagent, FACS + sequencing; frameworks hold sequencing errors
Method in brief: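 A nanobody's polyreactivity label depends on the gate it was sorted from. Yeast display cells were stained with 10% biotinylated, detergent-solubilized Sf9 membrane reagent for 1 hour at 4 °C, enriched on streptavidin microbeads and sorted by FACS. The low and high (top ~1%) gates were set on anti-HA fluorescence for expression and streptavidin fluorescence for reagent binding.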

Sequence	polyreactivity (PSR sort gate)
QVQLVESGGGLVQAGGSLRLSCAASGFIFYAYAMGWYRQAPGKERELVAGISDSGASTYADSVKGRFTISRDNAKNTVYLQMNSLKPEDTAVYYCATTGYLSTKVYDEYGYWGQGTQVTVSS	low polyreactivity
QVQLVESGGGLVQAGGSLRLSCAASGFIFYDYAMGWYRQAPGKEREMVAGITDSGGSTSYADSVKGRFTISRDNAKNTVYLQMNSLKPEDTAVYYCAADNYVRAGINYDYWGQGTQVTVSS	low polyreactivity
QVQLVESGGGLVQAGGSLRLSCAASGFIFYDYDMGWYRPAPGKERELVAAITYSGGSTYYADSVKGRFTISRDNAKNTVYLQMNSLKPEDTAVYYCAAVKSRYAEAVDYYYWGQGTQVTVSS	low polyreactivity
QVQLVESGGGLVQAGGSLRLSCAASGFIFYDYDMGWYRQAPGKERELVAAITYSGGSTYYADSVKGRFTISRDNAKNSVYLQMNSLKPEDTAVYYCAAVKSRYAEAVDYYYWGQGTQVNVSS	low polyreactivity
QVQLVESGGGLVQAGGSLRLSCAASGFIFYEYDMGWYRQAPGKEGELVAAISVSGGSTYYADSVKGRFTISRDNAKNTVYLQMNSLKPEDTAVYYCAVFLPDYGRYDYWGQGTQVTVSS	low polyreactivity
QVQLVESGGGLVQAGGSLRLSCAASGFIFYFYAMGWYRQAPGKERELVAAISYNGGSTYYADSVKGRFTISRDNAKNTVYLQMNSLKPEDTAVYYCNAVRNYAWGKMYSWGQGTQVTVSS	high polyreactivity
QVQLVESGGGLVQAGGSLRLSCAASGFIFYKNAMGWYRQAPGKERELVAAINWSGGSTYYADSVKGRFTISRDNAKNTVYLQMNSLKPEDTAVYYCAVVVYSGYRHYYWGQGTQVTVSS	high polyreactivity
QVQLVESGGGLVQAGGSLRLSCAASGFIFYKYAMGWYRQAPGKERELVAAISRSGSTYYADSVKGRFTISRDNAKNTVYLQMNSLKPDDTAVYYCNALTYFKRSEYYWGQGTQVTVSS	high polyreactivity
QVQLVESGGGLVQAGGSLRLSCAASGFIFYKYAMGWYRQAPGKERELVARISISGGRTYYADSVKGRFPISRDNAKNTVYLQMNSLKPEDTAVYYCATSPWWYGYAAYGMDYWGQGTQVTVSS	low polyreactivity
QVQLVESGGGLVQAGGSLRLSCAASGFIFYLNAMGWYRQAPGKERELVAAISRGGTTYYADSVKGRFTISRDNAKNTVYLQMNSLIPEDTAVYYCAAKDKRWYSRYYWTGYDYWGQGTQVTVSS	high polyreactivity
QVQLVESGGGLVQAGGSLRLSCAASGFIFYPYAMGWYRQAAGKERELVASIRRSTASTYYADSVKGRFTISRDNAKNTVYLQMNSLKPEDTAVYYCAARYRSYPKEYDYWGQGTEVTVSS	high polyreactivity
QVQLVESGGGLVQAGGSLRLSCAASGFIFYPYAMGWYRQAPGKERELVAAITGSGGSTYYADSVKGRFTISRDNAKNTVYLQMNSLKPEDTAVYYCAAYYGPRKMDYWGQGTQVTVSS	high polyreactivity
QVQLVESGGGLVQAGGSLRLSCAASGFIFYPYAMGWYRQAPGKERELVAVITSGGRTYYADSVKGRFTISRDNAKNTVYLQMNSLKPEDTAVYYCAARYGRIQWKANWPEYGYWGQGTQVTVSS	low polyreactivity
QVQLVESGGGLVQAGGSLRLSCAASGFIFYPYVMGWYRQAPGKERELVATIRTDGRTSYADSVKGRFTISRDNAKNTVYLQMNSLKPEDTAVYYCNTKYVRYYRRYDSWGQGTQVTVSS	high polyreactivity
QVQLVESGGGLVQAGGSLRLSCAASGFIFYQYAMGWYRQAPGKERELVAAISRRGGGTYYADSVKGRFTISRDNAKNTVYLQMNSLKPEDTAVYYCNTDRLARITFGGYDYWGQGTQVTVSS	high polyreactivity
QVQLVESGGGLVQAGGSLRLSCAASGFIFYRNAMGWYRQAPGKERELVAAISGSGGRTYYADSVNGRFTISRDNAKNTVYLQMNSLNPEDTAVYYCNAGLLYRGEYDYWGQGTQVTVSS	high polyreactivity

Sequence	polyreactivity (PSR sort gate)
QVQLVESGGGLVQAGGSLRLSCAASGFIFYRNTMGWYRQAPGKERELDAAISWSGARTYYADSVKGRFTISRDNAKNTVYLQMNSLKPEDTAVYYCNTVFYLHSTTTNGDYWGQGTQVTVSS	high polyreactivity
QVQLVESGGGLVQAGGSLRLSCAASGFIFYRWYALGWYIQAPGKERELVAAIRSGGSTYYADSVKGRFTISRDNAKNTVYLQMNSLKPEDTAVYYCSTSGPQYYSRHFDYWGEGTQVTVSS	low polyreactivity
QVQLVESGGGLVQAGGSLRLSCAASGFIFYRYAMGWYRPAPGKERELVAAISRSGGTTYYADSVKGRFTISRDNAKNTVYLQMNSLKPEDTAVYYCNVKRGTIGGYYYWGQGTQVTVSS	high polyreactivity
QVQLVESGGGLVQAGGSLRLSCAASGFIFYRYAMGWYRQAPGKERELVAAISKSGSSTYYADSVKGRFTISRDNAKNTVYLQMNSLKPEDTAVYYCARDRQSRSLLEYDYWGQGTQVTVSS	low polyreactivity
QVQLVESGGGLVQAGGSLRLSCAASGFIFYRYAMGWYRQAPGKERELVAAISWGGGSTTYYADSVKGRFTISRDNAKNTVYLQMNRLKPEDTAVYYCAAYIGKGYGSEYYYWGQGTQVTVSS	low polyreactivity
QVQLVESGGGLVQAGGSLRLSCAASGFIFYRYAMGWYRQAPGKERELVAVISGSGGRTYYADSVKGRFTISRDNAKNTVYLQMNSLKPEDTAVYYCAAVTRRRYYGHIYGYWGQGTQVTVSS	high polyreactivity
QVQLVESGGGLVQAGGSLRLSCAASGFIFYRYPMGWYRQAPGKERELVAAISYSGGSTYYADSVKGRFTISRDNAKNTVYLQMNSLKQEDTAVYYCARRQVYKFRRYDYWGQGTQVTVSS	high polyreactivity
QVQLVESGGGLVQAGGSLRLSCAASGFIFYRYVMGWYRQAPGKERELVAAITWSGGSTYYADSVKGRFTISRDNAKNTVYLQMNSLKPEDTAGNYCAAEWWLPSFGMDYWGQGTQVTVSS	low polyreactivity
QVQLVESGGGLVQAGGSLRLSCAASGFIFYRYVMGWYRQAPGKERELVAAITWSGGSTYYADSVKGRFTISRDNAKNTVYLQMNSLKPEDTAVYYCAAEWWLPSFGMDYWGQGTQVTVSS	low polyreactivity
QVQLVESGGGLVQAGGSLRLSCAASGFIFYSKAMGWYRQAPGKERELVAAISWGGGRTYYADSVKGRFTISRDNAKNTVYLQMNSLKPEDTAVYYCAAPWRRIGYSTRGYTLYDYWGQGTQVTVSS	high polyreactivity
QVQLVESGGGLVQAGGSLRLSCAASGFIFYSNAMGWYRQAPGKERELVAAISRRGGSTYYADSVKGRFTISRDNAKNTVYLQMNSLKPEDTAVYYCAATFKSGMDYWGQGTQVTVSS	high polyreactivity
QVQLVESGGGLVQAGGSLRLSCAASGFIFYSNDMGWYRQAPGKERELVAAITSSGGSTYYADSVKGRFTISRDNAKNTVYLQMNSLKPEDTAVYYCNADCTTFGLYSWGQGTQVTVSS	low polyreactivity
QVQLVESGGGLVQAGGSLRLSCAASGFIFYSYAMGWYRQAPGKERELVAAITEDGDSTYYADSVKGRFTISRDNAKNTVYLQMNSLKPEDTAVYYCNTDLTFNGTSGDYDYWGQGTQVTVSS	low polyreactivity
QVQLVESGGGLVQAGGSLRLSCAASGFIFYSYTMVWYRQAPGKERELVASISRRGGITYYADSVKGRFTISRDNAKNTVYLQMNILIPEDTAVFYCAAYSWRRQGDHYDYWGQGTKVTVSS	high polyreactivity
QVQLVESGGGLVQAGGSLRLSCAASGFIFYTYAIGWYRQAHGKERELVAAISRGGRTNYADSVKGRFTISRDNAKNSVYLQMNSLKPEDPAVYYCPSSYSHRYDYWGQGTQVTVSS	high polyreactivity
QVQLVESGGGLVQAGGSLRLSCAASGFIFYTYAMGWYIQAPGKERELVAAINTSGSTTNYADSVKGRFTISRDNAKNTVYLQMNSLKPEDTAVYYCAAEWNVSPYDYWGQGTQVTVSS	low polyreactivity
